Laboratory results as given in patent US20220396615A1 (published 2022).
Where a chain is given by its changes, count along the chain named.

B1: 41A10B8 (antibody, V domains shown)
VH: EVKLEESGGGLVQPGGSMKLSCAASGFTFSDAWMDWVRQSPDKGLEWVAEIRSKTYHPATYYTKSVRGRFTISRDDSKSSVYLQMNNLGAEDTGIYYCTRPRYYGGYFDYWGQGTTLTVSS
VL: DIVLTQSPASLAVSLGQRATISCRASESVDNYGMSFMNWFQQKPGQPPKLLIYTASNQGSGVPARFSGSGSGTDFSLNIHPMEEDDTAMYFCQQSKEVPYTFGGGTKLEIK
B2: 53A2F9 (rat) (antibody, V domains shown)
VH: QVQLKESGPGLVQPSQTLSLTCTVSGFSLTSHTVSWIRQPPGRGLEWMGKMWSNGDTDYDSAIRSRLSITRDTSKSQVFLKINSLQTEDTAMYFCARYYFSSYGGGYFDYWGQGVMVTVSS
VL: DTVLTQSPALAVSLGQRVTISCRASKSVSTYMHWYQQKSGQQPKLLIYSASNLESGVPSRFSGSGSGTDFTLTIDPVEADDIANYYCQQSDELPDTFGAGTKLELK
B3: 29D6B5 (antibody, V domains shown)
VH: QVQLQQSGAELAEPGASVKMSCKASGYNFNNYWMHWVKQGPGQGLEWIGYIDPRTASIYYNQKFKDKATLTADKSSSTAYMQLSSLTSEDSAVYYCARILYGKYDVWGAGTTVIVSS
VL: DVVLTQTPLSLPVSLGNQASISCRSSQSLVDSNGNTYLHWYLQKPGQSPKVLIHKVSNRFSGVPDRFSGSGSGTDFTLKISRVEAEDLGVYFCSQSTHVPPTFGGGTKLEIK
B4: 23A9H3 (antibody, V domains shown)
VH: QVQLQQSGAELAKPGASVKMSCKTSGYTFTNYWMHWVKQRPGQGLEWIGYVIPSTGYTDYNQSFKDKATLTADKSSNTAYMQVNSLTSEDSAVYYCASLLPGFAYWGQGTLVTVSA
VL: B3 VL with L4M, N17D, V51L, H54Y
B5: 61G1D8 (rat) (antibody, V domains shown)
VH: EVQLLESGGGLVQPGRSMKLSCAASGFTFSSFPMAWVRQTPSKALEWVATISPSGGTSYSRDSVKGRFTISRDNANSTLCLHMDSLKSEDTATYYCLRERIYNTYFDYWGQGVMVTVSS
VL: DIRMTHSPASLSASLGETVSIECLPSEDISSDLAWYQQKPGKSPQLLIYNANTLPNGVPSRFSGSRSGAQYFLKINSLQSEDVATYFCQQYDSYPYTFGTGTKLELK
B6: 49F10H6 (antibody, V domains shown)
VH: QVQLQQPGAELVKPGASVKMSCKASGYTFTNYIIHWIKQTPGQGLEWIGAIYPGNGDTSYSQKFKDKATLTADRSSSTAYMQLSSLTSEDSAVYYCARGDAGYSAWFAYWGQGTLVTVSA
VL: NIVLTQSPASLAVSLGQRATISCSASESVDSYGNNFMHWYQQRPGQPPKLLIYLASKLESGVPARFSGSGSRTEFTLTIDPVEAEDAATYYCQQNNEDPLTFGAGTKLELK

Legend:
[1] = target: T1, Tag-free human IL6 recombinant protein (GenScript, Cat. No. Z03034) (human, UniProt P05231 30-212); test: SPR (Biacore)
T1 sequence (P05231 30-212, one chain of several): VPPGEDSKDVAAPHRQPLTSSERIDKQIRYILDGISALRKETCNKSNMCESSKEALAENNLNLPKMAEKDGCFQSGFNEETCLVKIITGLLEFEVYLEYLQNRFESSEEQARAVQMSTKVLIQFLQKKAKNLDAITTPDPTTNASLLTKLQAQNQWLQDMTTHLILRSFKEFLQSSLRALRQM

[2] = target: T1, Tag-free human IL6 recombinant protein …; test: ELISA

Binder | Kd [1] [pM] | EC50 [2] [µg/mL]
B1 | 84.7 | 0.018
B2 | 0.0225 | –
B3 | 1950 | 0.0231
B4 | 8770 | 0.0163
B5 | 230 | 0.0196
B6 | 265 | 0.0153
